The record followed here is US20250002596A1, “NEUTRALIZING ANTI-CD95L MONOCLONAL ANTIBODIES” (INSTITUT NATIONAL DE LA SANTÉ ET DE LA RECHERCHE MÉDICALE, priority 2021, published 2025).

“Also recorded” adds a separate entry of the source.

As usually defined, the Kd is the concentration at which binding is half-saturated. Read a high Kd as a looser complex. For orientation: EC50 means the midpoint of the concentration-response curve. Higher therefore signals a less potent agent.

One assay deals with IgCD95L (UniProt P48023). As to the kind of experiment: SPR.
For the next assay, the target named is CD95L (UniProt P48023). As to the kind of experiment: flow cytometry (1A12 cells). In general terms: A flow cytometer gives signals particle by particle.
Assay [1] has as its target T1, Ig-CD95L (soluble and cytotoxic human CD95L) (UniProt P48023 103-281).
T1 chain: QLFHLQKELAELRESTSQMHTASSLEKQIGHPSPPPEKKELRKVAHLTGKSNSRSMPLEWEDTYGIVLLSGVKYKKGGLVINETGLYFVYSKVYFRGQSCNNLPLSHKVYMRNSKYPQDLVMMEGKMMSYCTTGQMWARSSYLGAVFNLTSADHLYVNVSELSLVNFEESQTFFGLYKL
As to the kind of experiment: SPR. A general note: In SPR one partner is held on a chip, and binding of the other changes the refractive index at the surface.

The target of assay [2] is T2, human CD95L expressed on cells (UniProt P48023 1-281).
T2 chain: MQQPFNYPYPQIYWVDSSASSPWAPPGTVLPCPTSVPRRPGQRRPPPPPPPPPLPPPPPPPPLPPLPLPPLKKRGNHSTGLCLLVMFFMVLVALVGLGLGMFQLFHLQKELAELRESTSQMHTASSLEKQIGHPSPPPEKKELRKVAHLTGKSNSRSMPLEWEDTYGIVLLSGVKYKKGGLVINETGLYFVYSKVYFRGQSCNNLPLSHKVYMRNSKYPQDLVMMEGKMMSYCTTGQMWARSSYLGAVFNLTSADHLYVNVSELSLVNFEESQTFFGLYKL
Kind of assay: flow cytometry (1A12 cells).

Assay [3] addresses T3, human CD95L expressed on cells (human, UniProt P48023 1-281).
T3 construct: also called FasL; FASL
T3 sequence: T2 chain
As to the kind of experiment: flow cytometry on HEK/293T cells transiently transfected with CD95L, antibody at 1 µg/ml. As for the experimental part:
(§1) FIG. 1. JQ3 recognizes human and simian CD95L and is a stronger neutralizing anti-CD95L mAb as compared to the commercial anti-CD95L antibody NOK-1. A. Kon, Koff and Kd of JQ3 (IgG1κ) and NOK-1 (IgG1κ) hybridoma measured by surface plasmon resonance. IgCD95L was immobilized on a sensor chip S CM5 and antibody binding features was evaluated using a Biacore T200. B. The ability of the anti-human CD95L monoclonal antibodies NOK-1 and JQ3 and anti-mouse CD95L monoclonal antibody MFL3 (1 μg/ml) to recognize human, simian or mouse CD95L was determined by flow cytometry using HEK/293T cells transiently transfected with indicated CD95L-encoding pcDNA3.1 vectors. C. The binding efficiency of NOK-1 and JQ3 was compared by flow cytometry against CD95L-expressing 1A12 cell line. Left panel: Histograms report the intensity of CD95L staining (CD95L mean of fluorescence—isotypic mean of fluorescence) according to the antibody concentration (M). Right panels: examples of CD95L staining, in red the JQ3 or NOK-1 staining and in grey the isotypic staining. Table indicates the half maximal effective concentration (EC50) for each antibody. D. The neutralizing ability of NOK1 and JQ3 mAbs was compared by incubating CD95-sensitive Jurkat cell line (5.10⁵ cells) for 24 hours with 100 ng/ml of Ig-CD95L (soluble and cytotoxic human CD95L) in the presence or absence of the indicated concentrations of antibody.

Assay [4] has as its system Ig-CD95L (soluble and cytotoxic human CD95L). As to the kind of experiment: Neutralization of Ig-CD95L-induced cell death in Jurkat T-cells (MTT assay). The class given is cell-based. Conditions: 24 hours, 100 ng/ml Ig-CD95L, compared with NOK-1. As for the experimental part:
as §1, with “JQ3 recognizes human and simian CD95L and is a stronger neutralizing anti-CD95L mAb as compared to the commercial anti-CD95L antibody NOK-1.” left out, “D. The neutralizing ability of NOK1 and JQ3 mAbs was compared by incubating CD95-sensitive Jurkat cell line (5.10⁵ cells) for 24 hours with 100 ng/ml of Ig-CD95L (soluble and cytotoxic human CD95L) in the presence or absence of the indicated concentrations of antibody.” left out
Cell viability was assessed using MTT (3-(4,5-dimethylthiazol-2-yl)-2,5-diphenyltetrazolium bromide) assay as previously described (48). […] Then, MTT (15 μl at 5 mg/mL in PBS) was added, and after 4 h of incubation at 37° C., the absorbance was measured at 570 nm wavelength using the Infinite200Pro (Tecan, Männedorf, Switzerland).
A general note: Formazan colour is commonly taken as a measure of viable cells.

Another assay has as its system simian CD95L. Kind of assay: Flow cytometry recognition of CD95L on transiently transfected HEK/293T cells. The class given is cell-based. Conditions: antibody 1 μg/ml, HEK/293T cells transfected with CD95L-encoding pcDNA3.1 vector. The method, then: as §1, with “JQ3 recognizes human and simian CD95L and is a stronger neutralizing anti-CD95L mAb as compared to the commercial anti-CD95L antibody NOK-1.” left out, “(5.10^5” for “(5.10⁵”

In a further assay the target is T4, human CD95L (Homo sapiens, UniProt P48023).
T4 construct: expressed in transfected cells; host or cells: HEK/293T
T4 sequence (P48023 1-281): T2 chain
The assay is described as above. The assay is classed as cell-based. Conditions: antibody 1 μg/ml, HEK/293T cells transfected with CD95L-encoding pcDNA3.1 vector. As for the experimental part:
as §1, with “JQ3 recognizes human and simian CD95L and is a stronger neutralizing anti-CD95L mAb as compared to the commercial anti-CD95L antibody NOK-1.” left out, “(5.10^5” for “(5.10⁵”

Assay [5] relates to CD95-mediated Ca^2+ response in neutrophils. As to the kind of experiment: Calcium response (Cal-520 imaging) of healthy donor neutrophils stimulated with patient sera. The class given is cell-based, human. Conditions: sera from AAV or COVID-19 patients pre-incubated 30 min with antibody 10 μg/mL.

In turn, NOK1 showed a Kd with IgCD95L of 5.3 nM.
In the assay with CD95L, NOK-1 displayed a concentration for a half-maximal effect (EC50) of 353 µM.

B1: JQ3 neutralizing anti-CD95L monoclonal antibody (IgG1κ) (antibody, V domains shown)
VH: EIQLQQTGPELVKPGASVKISCKASGFSFTDYIMVWVKQSHGKILEWIGDISPYYGTATYNLKFKGKATLTVVKSSSTAYMQLNSLTSEDSAVYYCARAPNRYEVMDYWGQGTSVTVSS
VL: QIVFTQSPAIMSAFLGEEITLTCSASSSVSYMHWYQQKSGTSPKLLIYNTFNLASGVPSRFSGSGSGTFYSLTISSVEAEDAADYYCHQWSSYPTFGGGTKLEIK
notes: Mouse (Balb/c) hybridoma antibody, IgG1 kappa, purified on protein A; also called JQ3 mAb
In turn, B1 gave a Kd in assay [1] of 2.2 nM. Further, the concentration giving a half-maximal response (EC50) in assay [2] was determined as 5.53 nM. Besides, in assay [3], the binding result is on record as “binds”.

B2: JQ3: neutralizing anti-CD95L monoclonal antibody (IgG1κ), mouse hybridoma; VL and VH domains given as sequences (antibody, V domains shown)
VH: B1 VH
VL: B1 VL
Take B2: in [4], the “neutralizing ability (inhibition of CD95-mediated apoptotic signaling pathway)” value is reported as “stronger neutralizing anti-CD95L mAb as compared to the commercial anti-CD95L antibody NOK-1; also recorded: inhibited the CD95-mediated apoptotic signaling pathway induced in T-cell line Jurkat more efficiently than NOK-1 mAb”. Also, the “recognition of simian CD95L” value with simian CD95L is given as “recognizes”. Besides, the “recognition of human CD95L” value with human CD95L is recorded as “recognizes”. Also, the “inhibition of neutrophil activation (calcium response)” value in assay [5] is “inhibit neutrophil activation (calcium response); also recorded: blocked the CD95-mediated Ca^2+ response”.
